Square brackets hold non-standard residues; d marks the D form. Ends that are not written are not given here. Peptide text beside a SMILES is read from it. hydrazide = C-terminal Gly-hydrazide; hydrazone‑SIG17 = not defined here; hydrazone‑FC45 = not defined here; pS = N[C@@H](COP(=O)(O)O)C(=O)O; Ahx = NCCCCCC(=O)O

One test has as its target T1, 14-3-3η (Homo sapiens, UniProt Q04917).
T1 construct: full length proteins were concentrated by centrifugation; His tag (pProEx HTb vector) (N); made in house; host or cells: E. coli BL21(DE3)
T1 sequence (Q04917 1-246): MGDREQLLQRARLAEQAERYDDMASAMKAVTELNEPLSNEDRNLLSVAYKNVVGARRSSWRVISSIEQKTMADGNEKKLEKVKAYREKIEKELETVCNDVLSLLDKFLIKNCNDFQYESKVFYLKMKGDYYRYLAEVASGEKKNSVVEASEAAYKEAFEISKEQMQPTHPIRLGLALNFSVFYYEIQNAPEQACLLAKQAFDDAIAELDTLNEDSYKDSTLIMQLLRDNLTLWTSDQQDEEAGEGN
In words: Fluorescence anisotropy (FA) competition assay against tracer hDMX361–374^pSer367*. It counts as binding. The conditions noted are these: 50 nM hDMX361–374^pSer367*. As to the method: A fluorescence anisotropy (FA) competition assay was subsequently carried out using conditions previously found suitable for acylhydrazone formation (pH 6.5, 50 mM NH4OAc, 10 mM aniline) with added DTT (1 mM) to supress disulfide formation. hDMX361–369^pSer367Gly-hydrazide was used to compete with a tracer peptide: hDMX361–374^pSer367* for binding to 14-3-3η (Fig S2, ESI ^†). […] Initial attempts to screen in cocktails, established the aldehydes had no affect on their own (Fig. S3, ESI ^†). We then performed an assay where each aldehyde was screened individually with hDMX361–369^pSer367Gly-hydrazide. A decrease in anisotropy can be attributed to a particular hydrazone product, avoiding the additional step of product identification e.g. by HRMS, and, combines the equilibration step for hydrazone formation with 14-3-3η screening (Fig. 2a). […] To confirm the single-concentration results, a competition assay was performed (Fig. 2b). hDMX361–369^pSer367Gly-hydrazide was equilibrated with 5 equivalents of each aldehyde (product formation confirmed by LC-MS, see Fig. S4, ESI ^†), and serially diluted against the tracer peptide (hDMX361–374^pSer367*) and 14-3-3η protein.
Fig. 2 Dynamic ligation screening based on hDMX361–369^pSer367Gly-hydrazide (a) Anisotropy values of individually screened hydrazones (relative to buffer, zero activity negative control in grey), hDMX361–374^pSer367 (blue) and hDMX361–369^pSer367Gly-hydrazide (red) as positive controls with hits (hDMX361–369^pSer367Gly-hydrazone-FC45 and hDMX361–369^pSer367Gly-hydrazone-SIG17) highlighted in orange boxes (10 μM acetylated hydrazide peptide mixed with 5 eq. of aldehyde, 1 μM 14-3-3η, 50 nM hDMX361–374^pSer367*, 50 mM NH4OAc, 10 mM aniline and 1 mM DTT) (b) competition FA curves for hydrazones taken forward as hits (50 nM hDMX361–374^pSer367*, 1 μM 14-3-3η in 50 mM NH4OAc, 10 mM aniline and 1 mM DTT).
Fig. 3 Dynamic ligation screening based on hDMX361–370^pSer367Gly-hydrazide (a) anisotropy values of individually screened hydrazones (relative to buffer, zero activity negative control in grey), hDMX361–374^pSer367 (blue) and hDMX361–370^pSer367Gly-hydrazide (red) as positive controls with hits highlighted in black boxes (10 μM acetylated hydrazide peptide mixed with 5 eq. of aldehyde, 1 μM 14-3-3η, 50 nM hDMX361–374^pSer367*, 50 mM NH4OAc, 10 mM aniline and 1 mM DTT) (b) representative competition FA curves for hydrazones taken forwards as hits (50 nM hDMX361–374^pSer367*, 1 μM 14-3-3η in 50 mM NH4OAc, 10 mM aniline and 1 mM DTT). […]
Screening was performed using fluorescence anisotropy competition assay, in 50 mM NH4Ac pH 6.5 buffer containing 10 mM aniline, 1 mM DTT. […]

Test [1] concerns the target T2, hDMX361–370pSer367Gly* 361-370 (Homo sapiens, UniProt O15151, also: FAM-Ahx, end not given here).
T2 chain: {FAM-Ahx}-DCRRTI[pS]APVG
In words: fluorescence anisotropy.

The target of test [2] is T3, hDMX361–369pSer367Gly-hydrazide 361-369 (Homo sapiens, UniProt O15151).
T3 chain: DCRRTI[pS]APG-hydrazide
In words: fluorescence anisotropy competition. On the technique in general: In fluorescence polarisation assays a small probe gives low polarisation when free and higher when bound to something large.

Test [3] deals with T4, hDMX361–374pSer367 361-374 (Homo sapiens, UniProt O15151).
T4 chain: DCRRTI[pS]APVVRPK
In words: fluorescence anisotropy competition.

The target of test [4] is T5, hDMX361–369pSer367Gly-hydrazone-FC45 361-369 (Homo sapiens, UniProt O15151, reading uncertain; also: printed as hDMX361–369pSer367Gly-hydrazone-FC45 361-369).
T5 chain: DCRRTI[pS]APG-{hydrazone‑FC45}
In words: fluorescence anisotropy competition.

The target of test [5] is T6, hDMX361–369pSer367Gly-hydrazone-SIG17 361-369 (Homo sapiens, UniProt O15151, reading uncertain; also: printed as hDMX361–369pSer367Gly-hydrazone-SIG17 361-369).
T6 chain: DCRRTI[pS]APG-{hydrazone‑SIG17}
In words: fluorescence anisotropy competition.

[6] abbreviates: Fig. 2b experiment, hydrazide equilibrated with 5 eq. aldehyde, serially diluted, 1 μM 14-3-3η, 50 mM NH4OAc, 10 mM aniline, 1 mM DTT, pH 6.5.

For `CC[C@H](C)[C@H](NC(=O)[C@@H](NC(=O)[C@H](CCCNC(=N)N)NC(=O)[C@H](CCCNC(=N)N)NC(=O)[C@H](CS)NC(=O)[C@H](CC(=O)O)NC(C)=O)[C@@H](C)O)C(=O)N[C@@H](COP(=O)(O)O)C(=O)N[C@@H](C)C(=O)N1CCC[C@H]1C(=O)NCC(=O)NN` [hDMX361–369^pSer367Gly-hydrazide] (HELM PEPTIDE1{[ac].D.C.R.R.T.I.[O=C([C@H](COP(=O)(O)O)N[*:1])[*:2]].A.P.G.[NN[*:1]]}$$$$V2.0), the IC50 on 14-3-3η (setting [6]) was 8.2 ± 1.3 µM.
`CC[C@H](C)[C@H](NC(=O)[C@@H](NC(=O)[C@H](CCCNC(=N)N)NC(=O)[C@H](CCCNC(=N)N)NC(=O)[C@H](CS)NC(=O)[C@H](CC(=O)O)NC(C)=O)[C@@H](C)O)C(=O)N[C@@H](COP(=O)(O)O)C(=O)N[C@@H](C)C(=O)N1CCC[C@H]1C(=O)NCC(=O)N/N=C/c1cc(Br)cc([N+](=O)[O-])c1` [hDMX361–369^pSer367Gly-hydrazone-FC45] (HELM PEPTIDE1{[ac].D.C.R.R.T.I.[O=C([C@H](COP(=O)(O)O)N[*:1])[*:2]].A.P.G.[O=[N+]([O-])c1cc(Br)cc(/C=N/N[*:1])c1]}$$$$V2.0): on 14-3-3η (setting [6]), the IC50 worked out at 10.4 ± 0.3 µM.
On 14-3-3η (Fig. 3b experiment, 1 μM 14-3-3η in 50 mM NH4OAc, 10 mM aniline and 1 mM DTT), `CC[C@H](C)[C@H](NC(=O)[C@@H](NC(=O)[C@H](CCCNC(=N)N)NC(=O)[C@H](CCCNC(=N)N)NC(=O)[C@H](CS)NC(=O)[C@H](CC(=O)O)NC(C)=O)[C@@H](C)O)C(=O)N[C@@H](COP(=O)(O)O)C(=O)N[C@@H](C)C(=O)N1CCC[C@H]1C(=O)N[C@H](C(=O)NCC(=O)NN)C(C)C` [hDMX361–370^pSer367Gly-hydrazide] (HELM PEPTIDE1{[ac].D.C.R.R.T.I.[O=C([C@H](COP(=O)(O)O)N[*:1])[*:2]].A.P.V.G.[NN[*:1]]}$$$$V2.0) showed an IC50 of 8.5 ± 1.6 µM.

B1: 14-3-3η (protein)
chain: GDREQLLQRARLAEQAERYDDMASAMKAVTELNEPLSNEDRNLLSVAYKNVVGARRSSWRVISSIEQKTMADGNEKKLEKVKAYREKIEKELETVCNDVLSLLDKFLIKNCNDFQYESKVFYLKMKGDYYRYLAEVASGEKKNSVVEASEAAYKEAFEISKEQMQPTHPIRLGLALNFSVFYYEIQNAPEQACLLAKQAFDDAIAELDTLNEDSYKDSTLIMQLLRDNLTLWTSDQQDEEAGEGN
In test [1], B1 returned a Kd of 0.172 µM. Further, the IC50 in test [2] worked out at 8.2 µM; in test [3] it was 8.5 µM; in test [4], 10.4 µM; in test [5] it was 13.7 µM.

As usually defined, the IC50 is the midpoint of a concentration-inhibition curve. The low end stands for greater potency in that assay, the high end for weaker potency in that assay. A word on the Kd: it is the equilibrium constant for the complex coming apart. The low end stands for tighter binding, the high end for weaker binding.

The values above are taken from article PMC9092428, “Towards identification of protein–protein interaction stabilizers via inhibitory peptide-fragment hybrids using templated fragment ligation” (RSC Chemical Biology, 2022).
